Consider two molecules from PMC11317151, “DNA binding and bridging by human CtIP in the healthy and diseased states”.

Data set [1] deals with T1, CtIP ΔC608 (human, UniProt Q99708 1-608). Put plainly: fluorescence anisotropy; no binding at 400 nM; Anisotropy: 20 mM Tris-Cl pH 8.0, 20 mM NaCl, 1 mM DTT, 5 nM HEX fork; EMSA: 20 mM Tris-Cl pH 8.0, 100 mM NaCl, 1 mM DTT, 0.1 mg/ml BSA, 5% glycerol, 2.5 nM Cy5 fork, room temperature; C-Trap reaction: 10 mM Tris-Cl pH 7.6, 20 mM NaCl, 1 mM DTT, 0.1 mg/ml BSA. The settings on record: protein: recombinant; tags: StrepII; chain copies: 4; label: 5'-HEX on strand 1; fork: 25 bp duplex, 20 nt 3' and 5' dT arms.

In data set [2] the target is CtIP ΔN500a (human, UniProt Q99708 501-897). Briefly: fluorescence anisotropy; Anisotropy: 20 mM Tris-Cl pH 8.0, 20 mM NaCl, 1 mM DTT, 5 nM HEX fork; EMSA: 20 mM Tris-Cl pH 8.0, 100 mM NaCl, 1 mM DTT, 0.1 mg/ml BSA, 5% glycerol, 2.5 nM Cy5 fork, room temperature; C-Trap reaction: 10 mM Tris-Cl pH 7.6, 20 mM NaCl, 1 mM DTT, 0.1 mg/ml BSA. Conditions: protein: recombinant; tags: StrepII; chain copies: 2; label: 5'-HEX on strand 1; fork: 25 bp duplex, 20 nt 3' and 5' dT arms.

The target in data set [3] is CtIP R100W (human, UniProt Q99708 1-897, R100W). Described as above. The settings on record: protein: recombinant; tags: StrepII; chain copies: 4; label: 5'-HEX on strand 1; fork: 25 bp duplex, 20 nt 3' and 5' dT arms.
The target of data set [4] is CtIP ΔN541a (human, UniProt Q99708 542-897). The data set is described as above. Conditions: protein: recombinant; tags: StrepII; chain copies: 2; label: 5'-HEX on strand 1; fork: 25 bp duplex, 20 nt 3' and 5' dT arms.
In data set [5] the target is CtIP ΔN500b (human, UniProt Q99708 501-897). The description is as above. The settings on record: protein: recombinant; tags: StrepII; label: 5'-HEX on strand 1; fork: 25 bp duplex, 20 nt 3' and 5' dT arms.
In data set [6] the target is CtIP ΔN541b (human, UniProt Q99708 542-897). The data set is described as above. The settings on record: protein: recombinant; tags: StrepII; label: 5'-HEX on strand 1; fork: 25 bp duplex, 20 nt 3' and 5' dT arms.
In data set [7] the target is T2, CtIP WT (human, UniProt Q99708 1-897). Described as above. The settings on record: protein: recombinant; tags: StrepII (cleavable); chain copies: 4; label: 5'-HEX on strand 1; fork: 25 bp duplex, 20 nt 3' and 5' dT arms.
In data set [8] the target is MBP-CtIP-800-843 (human, UniProt Q99708 800-843). Put plainly: fluorescence-based binding assay; label not certain; weak binding equation; Anisotropy: 20 mM Tris-Cl pH 8.0, 20 mM NaCl, 1 mM DTT, 5 nM HEX fork; EMSA: 20 mM Tris-Cl pH 8.0, 100 mM NaCl, 1 mM DTT, 0.1 mg/ml BSA, 5% glycerol, 2.5 nM Cy5 fork, room temperature; C-Trap reaction: 10 mM Tris-Cl pH 7.6, 20 mM NaCl, 1 mM DTT, 0.1 mg/ml BSA. Conditions: protein: recombinant; tags: MBP; label: 5'-HEX on strand 1; fork: 25 bp duplex, 20 nt 3' and 5' dT arms.

The target of data set [9] is T2, CtIP WT. Put plainly: fluorescence anisotropy; independent repeat; Anisotropy: 20 mM Tris-Cl pH 8.0, 20 mM NaCl, 1 mM DTT, 5 nM HEX fork; EMSA: 20 mM Tris-Cl pH 8.0, 100 mM NaCl, 1 mM DTT, 0.1 mg/ml BSA, 5% glycerol, 2.5 nM Cy5 fork, room temperature; C-Trap reaction: 10 mM Tris-Cl pH 7.6, 20 mM NaCl, 1 mM DTT, 0.1 mg/ml BSA. The settings on record: protein: recombinant; tags: StrepII (cleavable); chain copies: 4; label: 5'-HEX on strand 1; fork: 25 bp duplex, 20 nt 3' and 5' dT arms.

The target of data set [10] is CtIP ΔN790 (human, UniProt Q99708 791-897). Briefly: fluorescence quenching; Results say Cy5-fork; Methods imply HEX (550 nm); Anisotropy: 20 mM Tris-Cl pH 8.0, 20 mM NaCl, 1 mM DTT, 5 nM HEX fork; EMSA: 20 mM Tris-Cl pH 8.0, 100 mM NaCl, 1 mM DTT, 0.1 mg/ml BSA, 5% glycerol, 2.5 nM Cy5 fork, room temperature; C-Trap reaction: 10 mM Tris-Cl pH 7.6, 20 mM NaCl, 1 mM DTT, 0.1 mg/ml BSA. Conditions: protein: recombinant; tags: StrepII; label: 5'-Cy5 on strand 1; fork: 25 bp duplex, 20 nt 3' and 5' dT arms.

Data set [11] addresses T1, CtIP ΔC608. Put plainly: EMSA; undetectable at highest concentration; Anisotropy: 20 mM Tris-Cl pH 8.0, 20 mM NaCl, 1 mM DTT, 5 nM HEX fork; EMSA: 20 mM Tris-Cl pH 8.0, 100 mM NaCl, 1 mM DTT, 0.1 mg/ml BSA, 5% glycerol, 2.5 nM Cy5 fork, room temperature; C-Trap reaction: 10 mM Tris-Cl pH 7.6, 20 mM NaCl, 1 mM DTT, 0.1 mg/ml BSA. Conditions: protein: recombinant; tags: StrepII; chain copies: 4; label: 5'-Cy5 on strand 1; fork: 25 bp duplex, 20 nt 3' and 5' dT arms.

T1 sequence (Q99708 1-608, stated change not applied): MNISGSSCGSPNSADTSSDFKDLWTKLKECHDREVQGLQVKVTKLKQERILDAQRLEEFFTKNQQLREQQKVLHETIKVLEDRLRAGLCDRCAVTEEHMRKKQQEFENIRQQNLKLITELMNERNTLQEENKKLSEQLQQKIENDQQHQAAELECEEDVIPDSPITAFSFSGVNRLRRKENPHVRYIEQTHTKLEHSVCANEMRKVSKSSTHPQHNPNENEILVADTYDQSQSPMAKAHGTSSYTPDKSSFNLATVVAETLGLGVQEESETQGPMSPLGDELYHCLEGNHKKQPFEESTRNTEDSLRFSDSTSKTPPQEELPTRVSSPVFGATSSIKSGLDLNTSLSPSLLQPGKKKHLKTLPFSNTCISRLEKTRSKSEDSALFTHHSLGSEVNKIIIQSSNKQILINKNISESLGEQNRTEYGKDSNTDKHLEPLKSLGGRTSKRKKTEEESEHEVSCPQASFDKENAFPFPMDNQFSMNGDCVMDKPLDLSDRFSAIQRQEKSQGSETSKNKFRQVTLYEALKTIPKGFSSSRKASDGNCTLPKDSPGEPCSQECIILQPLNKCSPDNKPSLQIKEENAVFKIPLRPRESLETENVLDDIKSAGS
T2 sequence (Q99708 whole entry): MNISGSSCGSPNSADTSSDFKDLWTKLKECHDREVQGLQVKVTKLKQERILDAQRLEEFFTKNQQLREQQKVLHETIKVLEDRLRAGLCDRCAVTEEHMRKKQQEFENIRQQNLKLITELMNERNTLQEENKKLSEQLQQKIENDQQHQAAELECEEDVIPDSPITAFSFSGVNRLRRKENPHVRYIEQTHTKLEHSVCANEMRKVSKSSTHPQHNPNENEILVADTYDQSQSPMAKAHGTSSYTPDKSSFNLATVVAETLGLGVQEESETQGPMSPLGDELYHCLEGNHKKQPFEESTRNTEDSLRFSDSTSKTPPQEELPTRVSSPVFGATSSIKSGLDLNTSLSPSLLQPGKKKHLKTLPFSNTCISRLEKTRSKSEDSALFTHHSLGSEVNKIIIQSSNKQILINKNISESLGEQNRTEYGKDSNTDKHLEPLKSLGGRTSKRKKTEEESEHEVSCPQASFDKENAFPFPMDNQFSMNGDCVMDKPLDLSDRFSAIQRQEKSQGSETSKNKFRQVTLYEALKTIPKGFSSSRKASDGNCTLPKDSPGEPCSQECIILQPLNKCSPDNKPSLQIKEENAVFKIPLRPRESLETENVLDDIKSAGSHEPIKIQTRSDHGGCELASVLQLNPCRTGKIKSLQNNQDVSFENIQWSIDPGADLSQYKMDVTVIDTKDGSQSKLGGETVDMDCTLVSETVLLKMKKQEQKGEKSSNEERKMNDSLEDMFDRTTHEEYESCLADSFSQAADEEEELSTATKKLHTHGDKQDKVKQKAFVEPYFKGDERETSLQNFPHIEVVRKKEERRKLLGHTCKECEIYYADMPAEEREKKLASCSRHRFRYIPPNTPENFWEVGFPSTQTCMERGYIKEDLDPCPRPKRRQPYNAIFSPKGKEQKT
CtIP ΔN790, sequence (Q99708 791-897, stated change not applied): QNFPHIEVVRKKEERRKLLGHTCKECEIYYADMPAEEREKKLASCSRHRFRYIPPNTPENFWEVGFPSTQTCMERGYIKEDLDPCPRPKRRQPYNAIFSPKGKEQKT
CtIP R100W, sequence (Q99708 whole entry R100W): as the sequence (Q99708 whole entry) above, with R100W counted along it
CtIP ΔN500a, sequence (Q99708 501-897, stated change not applied): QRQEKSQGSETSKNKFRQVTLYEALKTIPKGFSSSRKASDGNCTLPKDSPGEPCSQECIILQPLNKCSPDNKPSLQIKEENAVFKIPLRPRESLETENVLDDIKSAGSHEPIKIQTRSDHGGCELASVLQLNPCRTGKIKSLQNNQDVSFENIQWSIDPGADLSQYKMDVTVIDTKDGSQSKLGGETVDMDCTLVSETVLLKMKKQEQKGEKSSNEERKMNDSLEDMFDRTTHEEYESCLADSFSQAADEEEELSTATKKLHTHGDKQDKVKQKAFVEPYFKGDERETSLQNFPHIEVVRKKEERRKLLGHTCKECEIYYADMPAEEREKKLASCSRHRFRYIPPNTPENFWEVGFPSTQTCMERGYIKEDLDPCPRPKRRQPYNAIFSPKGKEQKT
CtIP ΔN500b, sequence (Q99708 501-897, stated change not applied): as above
MBP-CtIP-800-843, sequence (Q99708 800-843): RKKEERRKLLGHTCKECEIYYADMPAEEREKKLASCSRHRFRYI
CtIP ΔN541b, sequence (Q99708 542-897, stated change not applied): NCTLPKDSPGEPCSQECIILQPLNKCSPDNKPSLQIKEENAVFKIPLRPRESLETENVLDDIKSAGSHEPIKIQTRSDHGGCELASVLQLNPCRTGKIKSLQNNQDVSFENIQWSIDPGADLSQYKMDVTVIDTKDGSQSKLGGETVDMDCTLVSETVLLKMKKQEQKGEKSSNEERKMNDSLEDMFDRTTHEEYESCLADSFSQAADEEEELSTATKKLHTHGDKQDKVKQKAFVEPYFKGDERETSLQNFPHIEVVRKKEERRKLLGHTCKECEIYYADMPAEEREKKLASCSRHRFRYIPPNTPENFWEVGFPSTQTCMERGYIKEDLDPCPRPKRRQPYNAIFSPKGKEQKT
CtIP ΔN541a, sequence (Q99708 542-897, stated change not applied): as above

B1: HEX fork (mixed)
DNA 1: GCTTGCTAGGACGGATCGCTCGAGGTTTTTTTTTTTTTTTTTTTT
DNA 2: TTTTTTTTTTTTTTTTTTTTCCTCGAGCGATCCGTCCTAGCAAGC
Regarding B1, the binding result in [1] is “no binding”. Also, the Kd in [2] was 45 nM; in [3], 115 nM; in data set [4], 210 nM; in data set [5], 33 nM; in data set [6] it was 960 nM; in data set [7] it was 66 nM. Also, the values for the Kd in data set [8] and in data set [9] were 520 nM and 37 nM, respectively.

B2: Cy5 fork (mixed)
DNA 1: B1 DNA 1
DNA 2: B1 DNA 2
Consider B2, for which the Kd in [10] was 270 nM. Moreover, the binding result in [11] is given as “no binding”.
